{
  "source": "patent US20050287164A1",
  "about": "(INHIBITEX, published 2005)",
  "binders": {"B1": {"name": "Monoclonal antibody 12-9 (antibody, V domains shown)", "VH": "QVQLKESGPGLVAPSQSLSITCAISGFSLSRYSVHWVRQPPGKGLEWLGMIWGGGNTDYNSALKSRLSISKDNSKSQVFLKMNSLQTDDTAMYYCARKGEFYYGYDGFVYWGQGTLVTVSA", "VL": "NIMMTQSPSSLAVSAGEKVTMSCKSSQSVLYSSNQKNYLAWYQQKPGQSPKLLIYWASTRESGVPDRFTGSGSGTDFTLTISSVQAEDLAVYYCHQYLSSYTFGGGTKLEIK", "notes": "also called F12-9; Mab 12-9"}},
  "target": "T1, Clf40 (A domain of ClfA, AA 40-559, recombinant, six-histidine fusion) (Staphylococcus aureus strain Newman, UniProt Q53653 40-559)",
  "T1 construct": "also called ClfA 40",
  "T1 sequence": "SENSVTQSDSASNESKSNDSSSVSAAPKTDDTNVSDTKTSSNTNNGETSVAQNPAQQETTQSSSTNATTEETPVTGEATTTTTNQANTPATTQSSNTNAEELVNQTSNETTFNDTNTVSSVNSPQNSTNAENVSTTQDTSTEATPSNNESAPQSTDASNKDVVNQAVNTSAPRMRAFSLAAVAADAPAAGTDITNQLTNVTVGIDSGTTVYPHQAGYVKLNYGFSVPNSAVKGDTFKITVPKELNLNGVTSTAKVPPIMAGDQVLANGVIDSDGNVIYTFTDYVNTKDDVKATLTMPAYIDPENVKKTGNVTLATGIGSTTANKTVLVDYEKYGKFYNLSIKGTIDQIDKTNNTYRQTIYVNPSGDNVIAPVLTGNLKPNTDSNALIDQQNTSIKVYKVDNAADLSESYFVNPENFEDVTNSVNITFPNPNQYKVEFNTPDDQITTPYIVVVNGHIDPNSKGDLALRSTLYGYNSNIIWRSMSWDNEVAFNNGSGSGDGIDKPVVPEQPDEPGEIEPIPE",
  "test": "Biacore 3000, Mab captured by rabbit anti-mouse Fc, Clf protein in flow",
  "data": [
    {"binder": "B1", "values": [
      {"measurement": "kon", "result": 774000, "unit": "M⁻¹ s⁻¹"}
    ]}
  ]
}
